Each block holds one substance with its values, some of them ahead of it.
Columns and labels:
[1] = biological target: PspCN-anchored FH (on the HJEM6 SPR chip) (human | Streptococcus pneumoniae) (UniProt P08603); test: SPR; homemade HJEM6 chip, FH (54 RU) captured by clicked sumo-Cys-PspCN-azide (18 RU); C3b flowed (1 μM to 3.9 nM); 1:1 steady-state model
[2] = biological target: C3b (human) (UniProt P01024); test: SPR; homemade HJEM7 chip, 143 RU C3b amine-coupled and 174 RU 3′-sialyllactose clicked on; FH (2 μM to 3.9 nM) or FH 19–20 (10 μM to 3.9 nM) flowed; Biacore T200, 25 °C, HBS-P pH 7.4; 1:1 steady-state model
[3] = biological target: C3b (human) (UniProt P01024); test: SPR; homemade HJEM7 chip (50% OH, 25% COOH, 25% propargyl), 144 RU C3b amine-coupled; FH (2 μM to 3.9 nM) or FH 19–20 (10 μM to 3.9 nM) flowed; Biacore T200, 25 °C, HBS-P pH 7.4; 1:1 steady-state model
[4] = biological target: C3b (human) (UniProt P01024); test: AFM force-distance measurements; Cys-PspCN thiol-coupled to the SAM on the AFM probe tip, alone or with FH anchored to it; partner amine-coupled to the SAM on a gold wafer; PBS, laboratory at 22 °C; single (type 3) detachment events
[5] = biological target: C3b (human) (UniProt P01024); test: SPR; C1 chip with immobilised C3b; cycles of a mixture of FB and FD, then C3, injected at 10 μl/min; Biacore T200, 25 °C, HBS-P pH 7.4 with 1 mM MgCl2

Substance: C3b (from UniProt P01024 23-667; P01024 749-1663) (natural protein)
Kd [1]: 70 nM

Kd [2]: 2600 nM | Kd [3]: 350 nM
Substance: FH 19–20 (domain or fragment)

Substance: PspCN-anchored FH (on the AFM probe tip) (from UniProt P08603 19-1231) (complex)
detachment force of single events [4]: 0.1 to 0.26 nN | mean detachment force [4]: 0.17 nN

percent of C3b molecules binding FB [5]: < 80%
Substance: factor B (natural protein)

— article PMC6937562
